B1: TBC1 domain family member 1 (Homo sapiens), Q86TI0 (parent)
chain: MEPITFTARKHLLSNEVSVDFGLQLVGSLPVHSLTTMPMLPWVVAEVRRLSRQSTRKEPVTKQVRLCVSPSGLRCEPEPGRSQQWDPLIYSSIFECKPQRVHKLIHNSHDPSYFACLIKEDAVHRQSICYVFKADDQTKVPEIISSIRQAGKIARQEELHCPSEFDDTFSKKFEVLFCGRVTVAHKKAPPALIDECIEKFNHVSGSRGSESPRPNPPHAAPTGSQEPVRRPMRKSFSQPGLRSLAFRKELQDGGLRSSGFFSSFEESDIENHLISGHNIVQPTDIEENRTMLFTIGQSEVYLISPDTKKIALEKNFKEISFCSQGIRHVDHFGFICRESSGGGGFHFVCYVFQCTNEALVDEIMMTLKQAFTVAAVQQTAKAPAQLCEGCPLQSLHKLCERIEGMNSSKTKLELQKHLTTLTNQEQATIFEEVQKLRPRNEQRENELIISFLRCLYEEKQKEHIHIGEMKQTSQMAAENIGSELPPSATRFRLDMLKNKAKRSLTESLESILSRGNKARGLQEHSISVDLDSSLSSTLSNTSKEPSVCEKEALPISESSFKLLGSSEDLSSDSESHLPEEPAPLSPQQAFRRRANTLSHFPIECQEPPQPARGSPGVSQRKLMRYHSVSTETPHERKDFESKANHLGDSGGTPVKTRRHSWRQQIFLRVATPQKACDSSSRYEDYSELGELPPRSPLEPVCEDGPFGPPPEEKKRTSRELRELWQKAILQQILLLRMEKENQKLQASENDLLNKRLKLDYEEITPCLKEVTTVWEKMLSTPGRSKIKFDMEKMHSAVGQGVPRHHRGEIWKFLAEQFHLKHQFPSKQQPKDVPYKELLKQLTSQQHAILIDLGRTFPTHPYFSAQLGAGQLSLYNILKAYSLLDQEVGYCQGLSFVAGILLLHMSEEEAFKMLKFLMFDMGLRKQYRPDMIILQIQMYQLSRLLHDYHRDLYNHLEEHEIGPSLYAAPWFLTMFASQFPLGFVARVFDMIFLQGTEVIFKVALSLLGSHKPLILQHENLETIVDFIKSTLPNLGLVQMEKTINQVFEMDIAKQLQAYEVEYHVLQEELIDSSPLSDNQRMDKLEKTNSSLRKQNLDLLEQLQVANGRIQSLEATIEKLLSSESKLKQAMLTLELERSALLQTVEELRRRSAEPSDREPECTQPEPTGD
partner: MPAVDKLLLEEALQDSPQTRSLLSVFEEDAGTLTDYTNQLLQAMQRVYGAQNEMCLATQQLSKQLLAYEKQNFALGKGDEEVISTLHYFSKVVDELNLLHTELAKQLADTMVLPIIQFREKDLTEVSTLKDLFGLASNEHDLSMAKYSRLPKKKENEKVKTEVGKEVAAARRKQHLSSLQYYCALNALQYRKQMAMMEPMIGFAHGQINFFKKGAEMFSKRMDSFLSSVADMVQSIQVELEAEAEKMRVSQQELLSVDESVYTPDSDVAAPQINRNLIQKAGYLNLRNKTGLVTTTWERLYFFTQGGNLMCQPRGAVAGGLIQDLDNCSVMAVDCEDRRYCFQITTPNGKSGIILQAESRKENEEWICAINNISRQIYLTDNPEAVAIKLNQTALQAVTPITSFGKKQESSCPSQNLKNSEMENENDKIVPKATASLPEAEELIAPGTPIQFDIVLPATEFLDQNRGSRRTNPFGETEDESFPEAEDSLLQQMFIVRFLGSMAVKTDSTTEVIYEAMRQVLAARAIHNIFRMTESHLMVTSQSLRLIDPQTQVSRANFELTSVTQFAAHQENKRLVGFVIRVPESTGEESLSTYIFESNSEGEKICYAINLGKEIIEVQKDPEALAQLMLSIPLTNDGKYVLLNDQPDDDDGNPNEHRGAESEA

Variants of: B1
Settings: with dp13b_human APPL2, Q8NEU8

effect of a mutation on the interaction | Variant
disrupting interaction strength | S235A
with no effect | S237A
